The test system of data set [1] is OC[C@@H](O)[C@@H](O[C@@H]1O[C@H](CO[C@H]2OC[C@@H](O)[C@H](O)[C@H]2O)[C@@H](O[C@@H]2O[C@H](CO[C@H]3OC[C@@H](O)[C@H](O)[C@H]3O)[C@@H](O[C@@H]3O[C@H](CO[C@H]4OC[C@@H](O)[C@H](O)[C@H]4O)[C@@H](O)[C@H](O)[C@H]3O)[C@H](O)[C@H]2O)[C@H](O)[C@H]1O)[C@H](O)[C@@H](O)CO. Put plainly: bicinchoninate reducing-sugar assay, Michaelis-Menten nonlinear regression. In kind it is biochemical, Aspergillus oryzae. Particulars: 50 mM sodium phosphate pH 4.5, 60 °C, 5 min, 0.0625-4 mM substrate. The source says: bicinchoninate reducing-sugar assay, Michaelis-Menten nonlinear regression on IpeA

Substrate in data set [2]: OC[C@@H](O)[C@@H](O[C@@H]1O[C@H](CO[C@H]2OC[C@@H](O)[C@H](O)[C@H]2O)[C@@H](O[C@@H]2O[C@H](CO[C@H]3OC[C@@H](O)[C@H](O)[C@H]3O)[C@@H](O[C@@H]3O[C@H](CO[C@H]4OC[C@@H](O)[C@H](O)[C@H]4O)[C@@H](O)[C@H](O)[C@H]3O)[C@H](O)[C@H]2O)[C@H](O)[C@H]1O)[C@H](O)[C@@H](O)CO
The data set is described as above. Particulars: 50 mM sodium phosphate pH 4.5, 60 °C, 5 min, 0.0125-0.8 mM substrate. In kind it is biochemical, Phaeoacremonium minimum. An excerpt: bicinchoninate reducing-sugar assay, Michaelis-Menten nonlinear regression on PmIPase

On to IpeA (Aspergillus oryzae RIB40), for which, in data set [1], the Km was 629 ± 51 µM, the kcat was 586 ± 16 s⁻¹ and the specificity constant (kcat/Km) was found to be 931000 M⁻¹ s⁻¹.

B1: PmIPase (Phaeoacremonium minimum UCRPA7) (protein)
chain: VPVYKNPNATVDDRIADLLKRMTIEDKTAQLIQGDISNWINTTDGTFNATGLEWNMKYRASMFYVGYPTNWSTISNGVKIAQDYLVHNTTLGIPALVQSEGIHGFLIPNATIFNSPIAQACSWNPELVEKMGKAIAQESLALGVNNLFAPLGDLARELRFGRVEETYGEDGYLSGEMAYSYVKGLQSGNVAAMVKHFAAFATPEQGVNTAPVHGGERELLTTYLPSYKRAIIDAGAYTIMSAYHCYDGVPAVADYHVLTEILRDSWGFKYFVMSDAGGTDRLCNSFGMCEASPIDSEAVTSMVLPSGNDVEMGGGSYNFQKIPEMVAAGKLDEKLVDQAVSRVLRVKFEMGLFEKPYQGVAEDEASKYINTKETIELARQLDTESIVLLENHEDLLPLKKSAKIAVIGPMAHGYMNYGDYVPYRSQYRGVTPLDGIRAAVDDESSVSYAQGCERWSNDESGFPEAIAAAEGADVAVVVVGTWSRDQGELWQNLNATTGEHIDVASLNLVGAMPRLVSAIINTGKPTVVVFSSGKPVTEPWISTNASALVQQFYPSEQGGNALADVLFGDYNPSGRLSVSFPYDVGTTPIYYDYLNSARAWPNPGHAYPNGTLVFGSNYVLNTPLPLYDFGYGKSYSTFSYSEITLSKSTASSSDTVTVSVDVTNNSTRDGTEVVQLYVKDLVSSVVVPNKQLKGFAKIPIAAGATETVKLDLKVADLGLWDIKYNYVVEPGNFTIFIGSSSADFRANTTLTVV
notes: synthetic codon-optimized gene, secreted from Pichia pastoris X-33 (pGAPZalpha A), Myc and His6 tags kept; full length 777 aa (2334 bp), predicted 24-aa N-terminal signal peptide absent from calculated mass 85 kDa; N-glycosylated, ~101 kDa on SDS/PAGE; putative nucleophile Asp-299, acid/base Glu-523
For the molecule B1, in data set [2], the Km was found to be 47.5 ± 4.8 µM, the kcat came out at 101 ± 3 s⁻¹ and the kcat/Km turned out to be 2.13e+06 M⁻¹ s⁻¹.

For the origin of these results see publication PMC6325624, “A novel isoprimeverose‐producing enzyme from Phaeoacremonium minimum is active with low concentrations of xyloglucan oligosaccharides” (FEBS Open Bio, 2018).
